The target of this assay is T1, Recombinant His-tagged WASp (mouse, UniProt P70315 1-520).
T1 sequence (looked up): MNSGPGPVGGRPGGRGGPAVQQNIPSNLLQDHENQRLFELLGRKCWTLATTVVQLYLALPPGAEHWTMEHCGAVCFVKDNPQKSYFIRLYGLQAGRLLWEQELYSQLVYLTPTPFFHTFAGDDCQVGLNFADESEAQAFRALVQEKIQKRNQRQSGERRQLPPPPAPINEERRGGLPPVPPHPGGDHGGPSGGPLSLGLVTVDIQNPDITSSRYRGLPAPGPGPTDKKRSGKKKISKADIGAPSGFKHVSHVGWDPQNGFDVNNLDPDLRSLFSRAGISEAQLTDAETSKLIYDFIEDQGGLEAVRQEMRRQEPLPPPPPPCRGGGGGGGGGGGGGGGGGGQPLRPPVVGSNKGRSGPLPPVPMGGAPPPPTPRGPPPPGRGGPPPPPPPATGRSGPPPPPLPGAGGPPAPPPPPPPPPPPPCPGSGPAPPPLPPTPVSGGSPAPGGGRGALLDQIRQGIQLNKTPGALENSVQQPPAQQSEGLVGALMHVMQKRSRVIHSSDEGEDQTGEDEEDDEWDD
Description: pull-down.

Here are results for one molecule from PMC5339670 (The Journal of Experimental Medicine, 2017).

B1: GST fusion protein of the Skap2 SH3 domain (domain or fragment, mouse, UniProt Q3UND0 296-357, looked up)
chain: DYANFYQGLWDCTGALSDELSFKRGDVIYILSKEYNRYGWWVGEMKGAIGLVPKAYLMEMYD
As for B1, the binding result is listed as “binds”.
